The assay has as its target 重组蛋白hVEGF-Fc (human). Nature of the assay: cell-based or functional assay.

重组蛋白hVEGF-Fc (human), sequence (chain, as listed by the source limits assumed): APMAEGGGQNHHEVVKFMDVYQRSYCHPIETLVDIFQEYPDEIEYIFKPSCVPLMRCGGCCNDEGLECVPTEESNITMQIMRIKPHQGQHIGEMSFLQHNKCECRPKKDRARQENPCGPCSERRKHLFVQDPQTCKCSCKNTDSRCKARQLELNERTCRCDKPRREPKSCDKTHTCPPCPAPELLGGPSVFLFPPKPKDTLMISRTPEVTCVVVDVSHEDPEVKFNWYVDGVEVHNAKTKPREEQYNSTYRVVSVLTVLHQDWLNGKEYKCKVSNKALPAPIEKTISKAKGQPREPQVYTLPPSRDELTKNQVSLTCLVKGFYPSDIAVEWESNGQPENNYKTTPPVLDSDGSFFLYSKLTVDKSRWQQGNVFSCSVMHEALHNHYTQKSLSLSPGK

Faricimab (bispecific antibody) showed a 中和VEGF活性IC 50 of 0.582 nM.
